Results: US20250250587A1 (published 2025)

Target: T1, Neo12 (neoantigen; source protein not named) peptide on HLA-A*02:01 (human)
T1 peptide: YLTHRVDVI
Test: multimer staining

B1: Neo12 neoTCR (TCR, V domains shown)
Valpha: QKEVEQDPGPLSVPEGAIVSLNCTYSNSAFQYFMWYRQYSRKGPELLMYTYSSGNKEDGRFTAQVDKSSKYISLFIRDSQPSDSATYLCAMSEDYKLSFGAGTTVTVRA
Vbeta: ETGVTQTPRHLVMGMTNKKSLKCEQHLGHNAMYWYKQSAKKPLELMFVYSLEERVENNSVPSRFSPECPNSSHLFLHLHTLQPEDSALYLCASSQSRGAQQYFGPGTRLTVT
  binding result: recognises
